Results: US20230295310A1 (ABCELLERA BIOLOGICS, published 2023)

Tests used:
[1] = biological target: T1, human CD3 expressed on cells (human, UniProt P07766 23-207; P04234 22-171; P09693 23-182); assay: flow cytometry, 25 nM
T1 construct: whole, on cells; CD3 complex on Jurkat cells and on human primary T cells
In short: (§1)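 Cells expressing CD3 were exposed to each antibody diluted to 25 nM for 30 minutes at 4° C, then analysed by flow cytometry. The median fluorescence signal was expressed relative to an isotype control, and a value of at least 10 indicated binding.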

[2] = biological target: T2, cynomolgus monkey CD3 expressed on primary T cells (cynomolgus monkey, UniProt Q95LI5 22-198; Q95LI8 22-171; Q95LI7 23-181); assay: flow cytometry, 25 nM, cyno primary T cells
T2 construct: whole, on cells; CD3 complex on purified cynomolgus monkey T cells; also called cyno CD3
In short: as §1

T1 sequence (P07766 23-207, chain 1 of 3): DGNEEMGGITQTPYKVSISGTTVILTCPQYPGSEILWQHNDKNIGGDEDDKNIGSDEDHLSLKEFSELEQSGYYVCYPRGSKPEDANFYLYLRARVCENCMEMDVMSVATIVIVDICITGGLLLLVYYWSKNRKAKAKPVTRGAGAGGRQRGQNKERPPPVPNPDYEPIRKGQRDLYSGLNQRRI
T1 sequence (P04234 22-171, chain 2 of 3): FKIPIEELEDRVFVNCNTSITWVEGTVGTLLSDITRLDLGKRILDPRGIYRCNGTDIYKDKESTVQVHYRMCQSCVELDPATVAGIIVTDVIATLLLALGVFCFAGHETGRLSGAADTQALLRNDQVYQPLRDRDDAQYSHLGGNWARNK
T1 sequence (P09693 23-182, chain 3 of 3): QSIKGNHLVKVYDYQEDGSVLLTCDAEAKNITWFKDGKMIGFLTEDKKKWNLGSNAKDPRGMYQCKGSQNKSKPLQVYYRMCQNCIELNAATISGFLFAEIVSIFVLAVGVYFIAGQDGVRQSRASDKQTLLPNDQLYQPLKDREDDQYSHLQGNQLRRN
T2 sequence (Q95LI5 22-198, chain 1 of 3): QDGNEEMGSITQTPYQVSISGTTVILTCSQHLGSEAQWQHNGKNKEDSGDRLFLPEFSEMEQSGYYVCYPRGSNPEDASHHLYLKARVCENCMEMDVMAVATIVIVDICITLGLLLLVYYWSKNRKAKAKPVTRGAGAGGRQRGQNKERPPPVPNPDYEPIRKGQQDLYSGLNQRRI
T2 sequence (Q95LI8 22-171, chain 2 of 3): as the sequence (P04234 22-171, chain 2 of 3) above, with I5V, N15K, I20V, S32T, D33N, I34N, T64A, S74N, V83L, H141R counted along it
T2 sequence (Q95LI7 23-181, chain 3 of 3): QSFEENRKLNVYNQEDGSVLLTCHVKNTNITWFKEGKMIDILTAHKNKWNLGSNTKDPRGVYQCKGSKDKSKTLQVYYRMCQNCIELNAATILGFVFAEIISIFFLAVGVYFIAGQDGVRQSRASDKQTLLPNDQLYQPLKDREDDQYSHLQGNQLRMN

| Human primary T Cell Binding (FOI) [1] [FOI] | Jurkat Cell Binding (FOI) [1] [FOI] | binding result [2] | Binder |
| --- | --- | --- | --- |
| 171 | 155 | no binding (tested: FOI >=10 = positive) | mAb 131 (antibody, V domains shown) VH: EVQLVESGGGLVKTGGSLRISCVASGFSFKKAWMNWVRQAPGKGLEWVGRIKRNTDGGTIDYAAPVKGRFSLSRDDSKNTLFLQMNSLKTEDTAVYFCTTLDSSSYYVGYYYMDVWGKGTTVTVSS VL: DIHMTQSPSSVSASVGDRVTITCRASQDINNWLAWYQQKPGKAPKLLIYTASSLQSGVPSRFSGSGSGTDFTLTISSLQPEDFATYFCQQAHSLPITFGQGTRLGIK |
| 274 | 163 | no binding (tested: FOI >=10 = positive) | mAb 155 (antibody, V domains shown) VH: EVQLVESGGGLVKTGGSLRLSCVASGFSFKKAWMNWVRQAPGKGLEWVGRIKRNTDGGTADYAAPVKGRFTLSRDDSKKTLFLQMNSLKTEDTAVYYCTTLDSSSYYVGYYYMDVWGKGTTVTVSS VL: DIQMTQSPSSVSASVGDRVIITCRASQDINNWLAWYQQKPGKAPKLLIYTASSLQSGVPSRFSGSGSGTDFTLTIGSLQPEDFATYYCQQAHSLPISFGQGTRLDIK |
| 278 | 118 | no binding (tested: FOI >=10 = positive) | mAb 163 (antibody, V domains shown) VH: EVQLVESGGGLVKTGGSLRLSCVASGFSFKKAWMNWVRQVPGKGLEWVGRIKRNTDGGTADYAAPVKGRFTLSRDDSKKTLFLQMNSLKTEDTAVYYCTTLDSSSYYVGYYYMDVWGKGTTVTVSS VL: DIQMTQSPSSVSASVGDRVIITCRASQDINNWLAWYQQKPGKAPKLLIYTASSLQSGVPSRFSGSGSGTDFTLTIGSLQPEDFATYYCQQAHSLPITFGQGTRLEIK |
| 169 | 161 | no binding (tested: FOI >=10 = positive) | mAb 133 (antibody, V domains shown) VH: EVQLVESGGGLVKTGGSLRLSCVASGFSFKKAWMSWVRQAPGKGLEWVGRIKRNTDGGTADYAAPVKGRFTLSRDDSKKTLFLQMNSLKTEDSAVYYCVTLDSSSYYVGYYYMDVWGKGTTVTVSS VL: DIQMTQSPSSVSASVGDRVSITCRASQDINNWLAWYQQKPGKAPKLLIYTASSLQSGVPSRFSGSGSGTDFTLTIGSLQPEDFATYYCQQAHSLPITFGQGTRLEIK |
| 243 | 171 | no binding (tested: FOI >=10 = positive) | mAb 156 (antibody, V domains shown) VH: EVQLVESGGGLVKTGGSLRLSCVASGFSFKKAWMNWVRQAPGKGLEWVGRIKRNTDGGTADYAAPVKGRFTLSRDDSKKTLFLQMNSLKTEDTAVYYCTTLDSSSYYVGYYYMDVWGKGTTVTVSS VL: DIQMTQSPSSVSASVGDRVIITCRASQDINNWLAWYQQKAGKAPKLLIYTASSLQSGVPSRFSGSGSGTDFTLTIGSLQPEDFATYYCQQAHSLPITFGQGTRLEIK |
| 265 | 163 | no binding (tested: FOI >=10 = positive) | mAb 157 (antibody, V domains shown) VH: EVQLVESGGGLVKTGGSLRLSCVASGFSFKKAWMNWVRQAPGKGLEWVGRIKRTADGGATDYAAPVKGRFTLSRDDSKNTLYLQMNSLKTEDTAVYYCTTLDSSSWYVGYYYMDVWGKGTTVTVSS VL: DIHMTQAPSSVSASVGDRVTFTCRASQDINNWLAWYQQKPGKAPKLLIYTASSLQSGVPSRFSGSGSGTDFTLTISSLQPEDFATYYCQQAHSLPITFGQGTRLGIK |
| 164 | 157 | no binding (tested: FOI >=10 = positive) | mAb 132 (antibody, V domains shown) VH: DVQLVESGGGTVKTGGSLRLSCVASGFSFKKAWMNWVRQAPGKGLEWVGRIKKNSDGGTADYAAPVKGRFTISRDDSKKTLYLQMNSLQTEDTAVYYCTTLDSSSWYVGYYYMDVWGKGTTVTVSS VL: DIQMTQSPSSVSASVGDRVIITCRASQDINNWLAWYQQKPGIAPKLLIYTASSLQSGVPSRFSGSGSVSDFTLTIGSLQPEDFATYYCQQAHSLPITFGQGTRLEIK |
